# Results reported in US20240336682A1 (SHENGHE CHINA BIOPHARMACEUTICAL, published 2024).
# Like-named read-outs stand apart in the source and are kept apart here.
# T1: Human-NKP30-His (human, UniProt O14931 19-135)
# T1 construct: also called NKP30 protein; not shown: His tag
# T1 sequence (looked up): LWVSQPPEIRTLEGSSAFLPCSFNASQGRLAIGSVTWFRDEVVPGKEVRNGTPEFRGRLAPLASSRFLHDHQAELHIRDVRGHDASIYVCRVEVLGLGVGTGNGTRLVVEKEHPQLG
# T2: Human-CD24-His (human, UniProt P25063 27-59)
# T2 construct: also called CD24 protein; not shown: His tag
# T2 chain (looked up): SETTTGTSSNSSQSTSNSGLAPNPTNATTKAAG
# B1: NKP30 humanized antibody (antibody, V domains shown)
# VH: EVQLVESGGGLVQPGGSLRLSCAASGITFSRSVMGWFRQAPGKLRELVAGITSDDNTDYADSVKGRFTISRDNSKNTLYLQMNSLRAEDTAVYYCNILPDSRLGWGQGTLVTVSS
# notes: It was detected with anti-human IgG-Fc
# B2: Positive control (antibody, human IgG1, kappa, V domains shown)
# VH: QVQLVQSGSELKKPGASVKVSCKASGYIFTDYAIHWVRQAPGQGLEWMGFINTATGEPTYADDFKGRFVFSLDTSVSTAYLQISSLKAEDTAVYFCTSGVHWGQGTLVTVSS
# VL: DIQMTQSPSTLSASVGDRVTITCSASSSVSSMHWYQQKPGKAPKLLIYSTSNLASGVPSRFSGSGSGTEYTLTISSLQPDDFATYYCHHWTSYMYTFGGGTKVEIKR
# notes: The sheet only prints 'Positive control'; also called CD24 monoclonal antibody
# B3: TGF-βR2 (Acro, Cat: TG2-H5252) (receptor, UniProt P37173 23-159, looked up)
# chain: TIPPHVQKSVNNDMIVTDNNGAVKFPQLCKFCDVRFSTCDNQKSCMSNCSITSICEKPQEVCVAVWRKNDENITLETVCHDPKLPYHDFILEDAASPKCIMKEKKKPGETFFMCSCSSDECNDNIIFSEEYNTSNPD
# notes: Bought reagent
# Assays:
# Human-NKP30-His [1] = molecular target: T1, Human-NKP30-His; experiment: ELISA, Human-NKP30-His coated at 0.5 ug/mL, HRP goat anti-human IgG-Fc
# Description: (§1) Human-NKP30-His was diluted to 0.5 μg/mL with PBS buffer at pH 7.4, added into the 96-well ELISA plate at 100 μL per well, coated overnight at 4° C., and blocked with 1% BSA blocking solution for 1 hour. The plate was washed 3 times with PBST, and the constructed antibodies were diluted to 10 μg/mL with 0.5% BSA sample diluent as the starting concentration, and then diluted by 3-fold gradient (11 gradients in total). A negative control (blank well and IgG1 isotype control) and a positive control were set, and the positive control was a NKP30 humanized antibody (sequence shown in SEQ ID No.32), and incubated at 37° C. for 1 h at 100 μL per well. […] The absorbance value of each well in the 96-well plate was determined by selecting the wavelength of 450 nm and the reference wavelength of 570 nm on a multifunctional enzyme marker, and the absorbance value (OD)=OD₄₅₀ₙₘ−OD₅₇₀ₙₘ. The logarithm of the concentration of the constructed antibodies were taken as the abscissa, and the measured absorbance value of each well was taken as the ordinate, and the Sigmoidaldose-response (Variable Slope) method (GraphPad Prism software, GraphPad Software, San Diego, California) was selected for nonlinear regression to obtain the binding curve of the target antibody to NKP30 protein.
# Human-NKP30-His [2] = molecular target: T1, Human-NKP30-His; experiment: as above; remark: listed apart in the source
# Description: as §1
# Human-NKP30-His [3] = molecular target: T1, Human-NKP30-His; experiment: as above; remark: listed apart in the source
# Description: as §1
# Human-NKP30-His [4] = molecular target: T1, Human-NKP30-His; experiment: as above; remark: listed apart in the source
# Description: as §1
# Human-CD24-His [5] = molecular target: T2, Human-CD24-His; experiment: ELISA, Human-CD24-His coated at 1 ug/mL, HRP goat anti-human IgG-Fc
# Description: (§2) Human-CD24-His was diluted to 1 μg/mL with PBS buffer at pH 7.4, added into the 96-well ELISA plate at 100 μL per well, coated overnight at 4° C., and blocked with 1% BSA blocking solution for 1 hour. The plate was washed 3 times with PBST, and the constructed antibodies were diluted to 20 μg/mL with 0.5% BSA sample diluent as the starting concentration, and then diluted by 3-fold gradient (11 gradients in total) and incubated at 37° C. for 1 h at 100 μL per well. The plate was washed 3 times with PBST, and then HRP-labelled goat anti-human IgG-Fc (jackson Cat: 109-035-098) was diluted with the sample diluent at 1:10000. 100 μL was added into each well, and incubated at room temperature for 1 hour. […] The absorbance value of each well in the 96-well plate was determined by selecting the wavelength of 450 nm and the reference wavelength of 570 nm on a multifunctional enzyme marker, and the absorbance value (OD)=OD₄₅₀ₙₘ−OD₅₇₀ₙₘ. The logarithm of the concentration of the constructed antibodies were taken as the abscissa, and the measured absorbance value of each well was taken as the ordinate, and the Sigmoidaldose-response (Variable Slope) method (GraphPad Prism software, GraphPad Software, San Diego, California) was selected for nonlinear regression to obtain the binding curve of the target antibodies to the CD24 protein.
# Human-CD24-His [6] = molecular target: T2, Human-CD24-His; experiment: as above
# Description: as §2
# TGFβ1 [7] = molecular target: T3, TGFβ1 (UniProt P01137 279-390, limits assumed); experiment: ELISA, TGFb1 coated at 1 ug/mL, HRP goat anti-human IgG-Fc
# T3 construct: also called TGFβ1 protein
# Description: (§3) TGFβ1 was diluted to 1 μg/mL with PBS buffer at pH 7.4, added into the 96-well ELISA plate at 100 μL per well, coated overnight at 4° C., and blocked with 1% BSA blocking solution for 1 hour. The plate was washed 3 times with PBST, and the constructed expressing antibodies were diluted to 20 µg/mL with 0.5% BSA sample diluent as the starting concentration, and then diluted by 3-fold gradient (11 gradients in total). A negative control (blank well and IgG1 isotype control) and a positive control were set, and the positive control was TGF-βR2 (Acro, Cat: TG2-H5252), and incubated at 37° C. for 1 h at 100 μL per well. The plate was washed 3 times with PBST, and then HRP-labelled goat anti-human IgG-Fc was diluted with the sample diluent at 1:10000. […] The absorbance value of each well in the 96-well plate was determined by selecting the wavelength of 450 nm and the reference wavelength of 570 nm on a multifunctional enzyme marker, and the absorbance value (OD)=OD₄₅₀ₙₘ−OD₅₇₀ₙₘ. The logarithm of the concentration of the constructed antibodies were taken as the abscissa, and the measured absorbance value of each well was taken as the ordinate, and the Sigmoidaldose-response (Variable Slope) method (GraphPad Prism software, GraphPad Software, San Diego, California) was selected for nonlinear regression to obtain the binding curve of the target antibodies to the TGFβ1 protein.
# TGFβ1 [8] = molecular target: T3, TGFβ1; experiment: as above; remark: listed apart in the source
# Description: as §3
# TGFβ1 [9] = molecular target: T3, TGFβ1; experiment: as above; remark: listed apart in the source
# Description: as §3
# T3 sequence (P01137 279-390 limits assumed): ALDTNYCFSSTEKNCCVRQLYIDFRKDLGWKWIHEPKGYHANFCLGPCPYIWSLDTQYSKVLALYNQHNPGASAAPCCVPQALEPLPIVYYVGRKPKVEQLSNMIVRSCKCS
binder,measurement,setting,value
B1,EC50 (read off the curve),Human-NKP30-His [1],~0.03 µg/mL
same,EC50 (read off the curve),Human-NKP30-His [2],~0.03 µg/mL
same,EC50 (read off the curve),Human-NKP30-His [3],~0.02 µg/mL
same,EC50 (read off the curve),Human-NKP30-His [4],~0.03 µg/mL
B2,EC50 (read off the curve),Human-CD24-His [5],~0.006 µg/mL
same,EC50 (read off the curve),Human-CD24-His [6],~0.01 µg/mL
B3,EC50 (read off the curve),TGFβ1 [7],~0.04 µg/mL
same,EC50 (read off the curve),TGFβ1 [8],~0.03 µg/mL
same,EC50 (read off the curve),TGFβ1 [9],~0.03 µg/mL
